Results on one molecule are retold here after PMC7102954, “A crucial RNA-binding lysine residue in the Nab3 RRM domain undergoes SET1 and SET3-responsive methylation”.

Settings in all cases: protein: recombinant; tags: N-terminal His6 (pET28a)
The target of one series is T1, Nab3 RRM S399A (Saccharomyces cerevisiae, UniProt P38996 329-419, S399A).
T1 sequence: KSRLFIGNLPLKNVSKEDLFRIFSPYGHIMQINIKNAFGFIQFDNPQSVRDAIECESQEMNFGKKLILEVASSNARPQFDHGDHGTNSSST
The series can be described thus: pull-down (streptavidin, anti-His blot); 25 uM RNA; 10 mM Tris-HCl pH 7.8, 50 mM NaCl, 1 mM EDTA, 5% glycerol, 2.5 mM DTT; 30 min at 15 C, then beads 2 h at 4 C; washes with 0.1% Tween-20.

Another series deals with T2, Nab3 RRM K363A (Saccharomyces cerevisiae, UniProt P38996 329-419, K363A).
T2 sequence: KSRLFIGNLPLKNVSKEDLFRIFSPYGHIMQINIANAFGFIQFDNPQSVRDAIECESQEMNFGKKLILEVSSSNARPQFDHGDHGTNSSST
Described as above.

Another series addresses T3, Nab3 RRM (Saccharomyces cerevisiae, UniProt P38996 329-419).
T3 sequence: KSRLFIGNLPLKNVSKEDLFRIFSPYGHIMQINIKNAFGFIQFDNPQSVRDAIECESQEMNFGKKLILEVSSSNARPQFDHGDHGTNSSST
The series can be described thus: pull-down (streptavidin, anti-His blot densitometry); 25 uM RNA; protein 0-60 uM; apparent Kd; 10 mM Tris-HCl pH 7.8, 50 mM NaCl, 1 mM EDTA, 5% glycerol, 2.5 mM DTT; 30 min at 15 C, then beads 2 h at 4 C; washes with 0.1% Tween-20.

The target of a further series is T4, Nab3 RRM K363R (Saccharomyces cerevisiae, UniProt P38996 329-419, K363R).
T4 sequence: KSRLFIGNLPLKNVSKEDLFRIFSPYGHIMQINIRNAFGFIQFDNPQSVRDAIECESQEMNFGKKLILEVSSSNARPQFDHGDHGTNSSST
Described as above.

B1: snR47 RNA probe (ssRNA)
RNA: UUUCUUUUUUCUUAUUCUUAUU
As to B1, the binding result with Nab3 RRM S399A and in the series with Nab3 RRM K363A was “no binding” in each case. Further, the Kd in the series with Nab3 RRM is 13.7 µM; in the series with Nab3 RRM K363R, 41.9 µM.
